# In paper doi:10.1101/2021.10.18.464377:
# Legend:
# [1] = molecular target: Synaptotagmin 1 wild type expressed in HEK 293 cells (UniProt P21707); assay: immunostaining of cells or tissue
# [2] = molecular target: Synaptotagmin 2 wild type expressed in HEK 293 or PC12 cells (UniProt P29101); assay: immunostaining of cells or tissue
# UniProt P29101, sequence (P29101 whole entry): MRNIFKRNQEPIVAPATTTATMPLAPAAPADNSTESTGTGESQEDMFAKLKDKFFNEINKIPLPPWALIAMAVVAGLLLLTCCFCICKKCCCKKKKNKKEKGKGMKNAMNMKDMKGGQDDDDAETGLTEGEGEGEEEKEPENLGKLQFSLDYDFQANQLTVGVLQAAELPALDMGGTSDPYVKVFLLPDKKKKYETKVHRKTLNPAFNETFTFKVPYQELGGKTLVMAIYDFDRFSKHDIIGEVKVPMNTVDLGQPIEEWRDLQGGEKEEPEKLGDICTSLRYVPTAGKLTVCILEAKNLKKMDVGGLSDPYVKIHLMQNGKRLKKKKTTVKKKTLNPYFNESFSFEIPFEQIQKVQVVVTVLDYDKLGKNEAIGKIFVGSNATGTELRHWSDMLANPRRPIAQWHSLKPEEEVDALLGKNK
# UniProt P21707, sequence (P21707 whole entry): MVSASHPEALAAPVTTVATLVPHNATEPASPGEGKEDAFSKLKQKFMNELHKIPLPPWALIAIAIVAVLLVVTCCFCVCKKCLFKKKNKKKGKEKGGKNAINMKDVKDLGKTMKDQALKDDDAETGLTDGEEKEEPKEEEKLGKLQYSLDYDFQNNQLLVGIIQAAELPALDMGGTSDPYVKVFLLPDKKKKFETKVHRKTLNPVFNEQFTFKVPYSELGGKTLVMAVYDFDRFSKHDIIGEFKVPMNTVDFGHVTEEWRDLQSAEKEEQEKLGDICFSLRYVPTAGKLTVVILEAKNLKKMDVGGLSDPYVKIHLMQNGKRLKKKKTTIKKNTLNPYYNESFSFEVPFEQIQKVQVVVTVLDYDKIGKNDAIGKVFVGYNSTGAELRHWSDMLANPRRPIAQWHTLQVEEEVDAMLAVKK
substance,measurement,setting,value
Botulinum neurotoxin serotype B (B1 Okra strain) with non-toxic accessory proteins (complex),"normalised BoNT/B immunoreactivity (IR, relative to WT)",[1],1
same,"normalised BoNT/B immunoreactivity (IR, relative to WT)",[2],1
